Measurements reported in article PMC11417369, “DNA sequence and chromatin differentiate sequence-specific transcription factor binding in the human malaria parasite Plasmodium falciparum”.

T1: AP2-LT D1 (Plasmodium falciparum, UniProt Q8IAM1 2520-2577)
T1 sequence: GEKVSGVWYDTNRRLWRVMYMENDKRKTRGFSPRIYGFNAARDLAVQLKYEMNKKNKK

B1: CACACA_site1127 (dsDNA)
DNA 1: TATTTTTCCATATGCACACACACCGTATATATAATA
DNA 2: TATTATATATACGGTGTGTGTGCATATGGAAAAATA
B2: CACACA_negctrl_site1791 (dsDNA)
DNA 1: TTTTAAAAAAAAAAAATAAATAAATAAGATATTATC
DNA 2: GATAATATCTTATTTATTTATTTTTTTTTTTTAAAA
B3: CACACA_negctrl_site65 (dsDNA)
DNA 1: ATTAAAAATTATATTTTATAAAAATTAAAAGAAATA
DNA 2: TATTTCTTTTAATTTTTATAAAATATAATTTTTAAT
B4: CACACA_negctrl_site1629 (dsDNA)
DNA 1: TTTTTCTTTCTATTTATCAATATTAAAAAAAAAAAA
DNA 2: TTTTTTTTTTTTAATATTGATAAATAGAAAGAAAAA
B5: CACACA_site1627 (dsDNA)
DNA 1: AAGAAAAAGATGCGCATACACACAGATGAATAACAA
DNA 2: TTGTTATTCATCTGTGTGTATGCGCATCTTTTTCTT
B6: CACACA_negctrl_site1467 (dsDNA)
DNA 1: TTATATAATGACAAAAAAAAAAAAAAAAAAAAAAAA
DNA 2: TTTTTTTTTTTTTTTTTTTTTTTTGTCATTATATAA
B7: CACACA_negctrl_site152 (dsDNA)
DNA 1: TTTTAAATAATTCGTAATTATAATTATGGAAAAAAG
DNA 2: CTTTTTTCCATAATTATAATTACGAATTATTTAAAA
B8: CACACA_negctrl_site861 (dsDNA)
DNA 1: TTTTAAAAATTAAAAAAATTAAATGTAAAAAAATGA
DNA 2: TCATTTTTTTACATTTAATTTTTTTAATTTTTAAAA
B9: CACACA_site8515 (dsDNA)
DNA 1: ATAATATATATACAAACACACAATTGCGTCCACATT
DNA 2: AATGTGGACGCAATTGTGTGTTTGTATATATATTAT
B10: CACACA_negctrl_site1701 (dsDNA)
DNA 1: TTTTTTCAATTTTTTTTAAATAAACCACAAAAAAAA
DNA 2: TTTTTTTTGTGGTTTATTTAAAAAAAATTGAAAAAA
B11: CACACA_negctrl_site797 (dsDNA)
DNA 1: AAATGTATAATTTTTTAATACACTTATTTAAAATAA
DNA 2: TTATTTTAAATAAGTGTATTAAAAAATTATACATTT
B12: CACACA_negctrl_site775 (dsDNA)
DNA 1: TTGTATCTTCATTTTATCAGAAAAAAAAAAAAAAAT
DNA 2: ATTTTTTTTTTTTTTTCTGATAAAATGAAGATACAA
B13: CACACA_site1322 (dsDNA)
DNA 1: CACGAACACAAACACAAACACACATCATATATATAT
DNA 2: ATATATATATGATGTGTGTTTGTGTTTGTGTTCGTG
B14: CACACA_site841 (dsDNA)
DNA 1: GGCATGACTATCTGCACACATAAAAATAAGAAATAC
DNA 2: GTATTTCTTATTTTTATGTGTGCAGATAGTCATGCC
B15: CACACA_negctrl_site159 (dsDNA)
DNA 1: TTTTTTTATTATTCTTATATAAAAATTTTTTTTAAT
DNA 2: ATTAAAAAAAATTTTTATATAAGAATAATAAAAAAA
B16: CACACA_negctrl_site1706 (dsDNA)
DNA 1: TTACACATATTTTTAATTATTCTGAATTCAAAAAAA
DNA 2: TTTTTTTGAATTCAGAATAATTAAAAATATGTGTAA
B17: CACACA_negctrl_site442 (dsDNA)
DNA 1: TGGTTTCAATAATTAATAAAATATATTATTGTGAAA
DNA 2: TTTCACAATAATATATTTTATTAATTATTGAAACCA
B18: CACACA_site8439 (dsDNA)
DNA 1: AGGTGAGCTCAGACTACACACACAAAGAAAAAAATA
DNA 2: TATTTTTTTCTTTGTGTGTGTAGTCTGAGCTCACCT
B19: CACACA_negctrl_site154 (dsDNA)
DNA 1: TTTTAAAAAATATAATATAATATAATATAAAATAAA
DNA 2: TTTATTTTATATTATATTATATTATATTTTTTAAAA
B20: CACACA_site1334 (dsDNA)
DNA 1: ATTACATACACGCGCACACACAAAAAAAAAAAAAAA
DNA 2: TTTTTTTTTTTTTTTGTGTGTGCGCGTGTATGTAAT
B21: CACACA_negctrl_site8 (dsDNA)
DNA 1: AAATTATATATAATAAATAATTTCTTTTTCTAAAAG
DNA 2: CTTTTAGAAAAAGAAATTATTTATTATATATAATTT
B22: CACACA_negctrl_site170 (dsDNA)
DNA 1: TTTGTTAAAAATATATTATGAATAAAAATATATTTT
DNA 2: AAAATATATTTTTATTCATAATATATTTTTAACAAA
B23: CACACA_negctrl_site333 (dsDNA)
DNA 1: GAATGAATGATAAATTTTTTTTTCTTTTTTTTTTTG
DNA 2: CAAAAAAAAAAAGAAAAAAAAATTTATCATTCATTC
B24: CACACA_negctrl_site473 (dsDNA)
DNA 1: TATTTAATTATATAAAATTAAATTTTTAATTCTTCC
DNA 2: GGAAGAATTAAAAATTTAATTTTATATAATTAAATA
B25: CACACA_negctrl_site1823 (dsDNA)
DNA 1: TATTTCATCTTATTTTAGGAAAAACTAATATATAAG
DNA 2: CTTATATATTAGTTTTTCCTAAAATAAGATGAAATA
B26: CACACA_negctrl_site169 (dsDNA)
DNA 1: TTATTTCTTCAGAAAAAATTAAAAAATTAAACAATA
DNA 2: TATTGTTTAATTTTTTAATTTTTTCTGAAGAAATAA
B27: CACACA_negctrl_site1012 (dsDNA)
DNA 1: ATAATTTCTATTTCACAAAAAAAAAAAAAAAAAAAA
DNA 2: TTTTTTTTTTTTTTTTTTTTGTGAAATAGAAATTAT
B28: CACACA_negctrl_site884 (dsDNA)
DNA 1: TATTAATCTTTTTTTAAACAAAAAATTAAGCAAATT
DNA 2: AATTTGCTTAATTTTTTGTTTAAAAAAAGATTAATA
B29: CACACA_site5877 (dsDNA)
DNA 1: TATAGCATATCTCACACACACATAATGAATATTATA
DNA 2: TATAATATTCATTATGTGTGTGTGAGATATGCTATA
B30: CACACA_site9215 (dsDNA)
DNA 1: ATATATATATATATTCCACACACACCCAAAAAAAAA
DNA 2: TTTTTTTTTGGGTGTGTGTGGAATATATATATATAT
B31: CACACA_negctrl_site90 (dsDNA)
DNA 1: TTATAATATATATAAAAGAAAAAAAATTATAATATA
DNA 2: TATATTATAATTTTTTTTCTTTTATATATATTATAA
B32: CACACA_negctrl_site1228 (dsDNA)
DNA 1: ATATTTTGGGGACTTTTTAAAAAAGAAGTATTAAAA
DNA 2: TTTTAATACTTCTTTTTTAAAAAGTCCCCAAAATAT
B33: CACACA_negctrl_site736 (dsDNA)
DNA 1: TACTTATATTATTTTATTATTAAATTTAAAACGAAA
DNA 2: TTTCGTTTTAAATTTAATAATAAAATAATATAAGTA
B34: CACACA_negctrl_site344 (dsDNA)
DNA 1: TTTTGAATATGGATCTTATATATATTAAATAAATAA
DNA 2: TTATTTATTTAATATATATAAGATCCATATTCAAAA
B35: CACACA_negctrl_site941 (dsDNA)
DNA 1: ATATTACGCACAAAAAAAAAAAAAAAAAAAAAAAAA
DNA 2: TTTTTTTTTTTTTTTTTTTTTTTTTGTGCGTAATAT
B36: CACACA_negctrl_site624 (dsDNA)
DNA 1: TTATAATAAATATTCATATGTTCAAATATATATATA
DNA 2: TATATATATATTTGAACATATGAATATTTATTATAA
B37: CACACA_negctrl_site1118 (dsDNA)
DNA 1: ATTATCAAAAAAAAAAAAAAAAAAAAAAAAAAAAAA
DNA 2: TTTTTTTTTTTTTTTTTTTTTTTTTTTTTTGATAAT
B38: CACACA_negctrl_site1598 (dsDNA)
DNA 1: TATTTTAACATGTTTTCAAAAATAAAACATATAAAT
DNA 2: ATTTATATGTTTTATTTTTGAAAACATGTTAAAATA
B39: CACACA_negctrl_site213 (dsDNA)
DNA 1: ATAAATATATGGTTTCATTATATTAAATTCAATTTA
DNA 2: TAAATTGAATTTAATATAATGAAACCATATATTTAT
B40: CACACA_site2529 (dsDNA)
DNA 1: ACCTAAAATAACTACACACACATAAAAAAAAAAAAA
DNA 2: TTTTTTTTTTTTTATGTGTGTGTAGTTATTTTAGGT
B41: CACACA_negctrl_site1281 (dsDNA)
DNA 1: TAAAATTAAATGAAATCATTATTCATTTTTATTTTA
DNA 2: TAAAATAAAAATGAATAATGATTTCATTTAATTTTA
B42: CACACA_negctrl_site82 (dsDNA)
DNA 1: TTTTGTTTCTATATAAGATGGAAATATAAACTTGTA
DNA 2: TACAAGTTTATATTTCCATCTTATATAGAAACAAAA
B43: CACACA_negctrl_site108 (dsDNA)
DNA 1: TTTTTAATTTAAAAAAATAATATTTTATATTCCGAA
DNA 2: TTCGGAATATAAAATATTATTTTTTTAAATTAAAAA
B44: CACACA_negctrl_site1568 (dsDNA)
DNA 1: TTTTTTATAAATCAAATGAAAAATAAACTATTCAGA
DNA 2: TCTGAATAGTTTATTTTTCATTTGATTTATAAAAAA

target: T1, AP2-LT D1; assay: gcPBM; about 25 ug protein; PBS, 1% milk, 0.2 mg/ml BSA, salmon testes DNA, 0.03% Triton X-100; conditions: tags: N-terminal GST (pGEX-4T-1), kept; label: surface-attached array probe

In order of rising binding signal:
1. B4  8.1 ln median PBM intensity, better of two orientations
2. B10  8.15 ln median PBM intensity, better of two orientations
3. B43  8.25 ln median PBM intensity, better of two orientations
4. B34  8.27 ln median PBM intensity, better of two orientations
5. B28  8.28 ln median PBM intensity, better of two orientations
6. B37  8.29 ln median PBM intensity, better of two orientations
7. B44  8.3 ln median PBM intensity, better of two orientations
8. B25  8.32 ln median PBM intensity, better of two orientations
9. B22  8.37 ln median PBM intensity, better of two orientations
10. B16  8.38 ln median PBM intensity, better of two orientations
11. B33  8.39 ln median PBM intensity, better of two orientations
12. B23  8.4 ln median PBM intensity, better of two orientations
13. B21  8.42 ln median PBM intensity, better of two orientations
14. B12  8.43 ln median PBM intensity, better of two orientations
15. B8  8.44 ln median PBM intensity, better of two orientations
16. B17  8.47 ln median PBM intensity, better of two orientations
17. B27  8.47 ln median PBM intensity, better of two orientations
18. B41  8.47 ln median PBM intensity, better of two orientations
19. B15  8.48 ln median PBM intensity, better of two orientations
20. B6  8.49 ln median PBM intensity, better of two orientations
21. B11  8.49 ln median PBM intensity, better of two orientations
22. B3  8.5 ln median PBM intensity, better of two orientations
23. B24  8.5 ln median PBM intensity, better of two orientations
24. B42  8.52 ln median PBM intensity, better of two orientations
25. B26  8.53 ln median PBM intensity, better of two orientations
26. B2  8.55 ln median PBM intensity, better of two orientations
27. B38  8.55 ln median PBM intensity, better of two orientations
28. B35  8.56 ln median PBM intensity, better of two orientations
29. B36  8.56 ln median PBM intensity, better of two orientations
30. B32  8.57 ln median PBM intensity, better of two orientations
31. B39  8.57 ln median PBM intensity, better of two orientations
32. B31  8.58 ln median PBM intensity, better of two orientations
33. B7  8.59 ln median PBM intensity, better of two orientations
34. B19  8.59 ln median PBM intensity, better of two orientations
35. B40  9.65 ln median PBM intensity, better of two orientations
36. B9  9.67 ln median PBM intensity, better of two orientations
37. B18  9.69 ln median PBM intensity, better of two orientations
38. B5  9.7 ln median PBM intensity, better of two orientations
39. B29  9.72 ln median PBM intensity, better of two orientations
40. B14  9.74 ln median PBM intensity, better of two orientations
41. B1  9.79 ln median PBM intensity, better of two orientations
42. B13  9.81 ln median PBM intensity, better of two orientations
43. B30  9.85 ln median PBM intensity, better of two orientations
44. B20  9.87 ln median PBM intensity, better of two orientations
